# Experimental data: IntAct's records for PubMed 29039417
# B1: Isoform 2 of Bardet-Biedl syndrome 7 protein (Homo sapiens), Q8IWZ6-2 (parent)
# chain: MDLILNRMDYLQVGVTSQKTMKLIPASRHRATQKVVIGDHDGVVMCFGMKKGEAAAVFKTLPGPKIARLELGGVINTPQEKIFIAAASEIRGFTKRGKQFLSFETNLTESIKAMHISGSDLFLSASYIYNHYCDCKDQHYYLSGDKINDVICLPVERLSRITPVLACQDRVLRVLQGSDVMYAVEVPGPPTVLALHNGNGGDSGEDLLFGTSDGKLALIQITTSKPVRKWEIQNEKKRGGILCIDSFDIVGDGVKDLLVGRDDGMVEVYSFDNANEPVLRFDQMLSESVTSIQGGCVGKDSYDEIVVSTYSGWVTGLTTEPIHKESGPGEELKINQEMQNKISSLRNELEHLQYKVLQERENYQQSSQSSKAKSAVPSFGINDKFTLNKDDASYSLILEVQTAIDNVLIQSDVPIDLLDVDKNSAVVSFSSCDSESNDNFLLATYRCQADTTRLELKIRSIEGQYGTLQAYVTPRIQPKTCQVRQYHIKPLSLHQRTHFIDHDRPMNTLTLTGQFSFAEVHSWVVFCLPEVPEKPPAGECVTFYFQNTFLDTQLESTYRKGEGVFKSDNISTISILKDVLSKEATKRKINLNISYEINEVSVKHTLKLIHPKLEYQLLLAKKVQLIDALKELQIHEGNTNFLIPEYHCILEEADHLQEEYKKQPAHLERLYG
# partner: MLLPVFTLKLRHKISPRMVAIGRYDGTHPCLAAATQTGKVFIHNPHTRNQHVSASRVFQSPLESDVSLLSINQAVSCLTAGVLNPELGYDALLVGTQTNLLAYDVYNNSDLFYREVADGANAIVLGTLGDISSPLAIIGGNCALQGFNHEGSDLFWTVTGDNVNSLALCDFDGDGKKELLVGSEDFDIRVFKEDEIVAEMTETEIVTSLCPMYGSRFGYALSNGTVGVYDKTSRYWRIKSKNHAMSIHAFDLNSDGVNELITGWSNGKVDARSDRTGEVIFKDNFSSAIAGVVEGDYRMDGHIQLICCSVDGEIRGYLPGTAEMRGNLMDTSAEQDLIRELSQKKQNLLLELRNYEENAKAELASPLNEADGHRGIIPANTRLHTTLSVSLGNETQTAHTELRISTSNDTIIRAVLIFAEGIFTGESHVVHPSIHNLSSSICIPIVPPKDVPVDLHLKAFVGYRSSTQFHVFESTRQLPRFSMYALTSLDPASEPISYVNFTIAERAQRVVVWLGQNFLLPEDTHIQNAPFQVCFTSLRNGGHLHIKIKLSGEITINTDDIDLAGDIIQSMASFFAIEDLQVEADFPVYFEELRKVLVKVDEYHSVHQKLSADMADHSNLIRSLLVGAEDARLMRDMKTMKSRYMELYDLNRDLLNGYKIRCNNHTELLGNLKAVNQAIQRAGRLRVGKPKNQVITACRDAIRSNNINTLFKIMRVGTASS
# B2: BBSome complex member BBS5 (Homo sapiens), Q8N3I7 (parent)
# chain: MSVLDALWEDRDVRFDLSAQQMKTRPGEVLIDCLDSIEDTKGNNGDRGRLLVTNLRILWHSLALSRVNVSVGYNCILNITTRTANSKLRGQTEALYILTKCNSTRFEFIFTNLVPGSPRLFTSVMAVHRAYETSKMYRDFKLRSALIQNKQLRLLPQEHVYDKINGVWNLSSDQGNLGTFFITNVRIVWHANMNDSFNVSIPYLQIRSIKIRDSKFGLALVIESSQQSGGYVLGFKIDPVEKLQESVKEINSLHKVYSASPIFGVDYEMEEKPQPLEALTVEQIQDDVEIDSDGHTDAFVAYFADGNKQQDREPVFSEELGLAIEKLKDGFTLQGLWEVMS
# partner: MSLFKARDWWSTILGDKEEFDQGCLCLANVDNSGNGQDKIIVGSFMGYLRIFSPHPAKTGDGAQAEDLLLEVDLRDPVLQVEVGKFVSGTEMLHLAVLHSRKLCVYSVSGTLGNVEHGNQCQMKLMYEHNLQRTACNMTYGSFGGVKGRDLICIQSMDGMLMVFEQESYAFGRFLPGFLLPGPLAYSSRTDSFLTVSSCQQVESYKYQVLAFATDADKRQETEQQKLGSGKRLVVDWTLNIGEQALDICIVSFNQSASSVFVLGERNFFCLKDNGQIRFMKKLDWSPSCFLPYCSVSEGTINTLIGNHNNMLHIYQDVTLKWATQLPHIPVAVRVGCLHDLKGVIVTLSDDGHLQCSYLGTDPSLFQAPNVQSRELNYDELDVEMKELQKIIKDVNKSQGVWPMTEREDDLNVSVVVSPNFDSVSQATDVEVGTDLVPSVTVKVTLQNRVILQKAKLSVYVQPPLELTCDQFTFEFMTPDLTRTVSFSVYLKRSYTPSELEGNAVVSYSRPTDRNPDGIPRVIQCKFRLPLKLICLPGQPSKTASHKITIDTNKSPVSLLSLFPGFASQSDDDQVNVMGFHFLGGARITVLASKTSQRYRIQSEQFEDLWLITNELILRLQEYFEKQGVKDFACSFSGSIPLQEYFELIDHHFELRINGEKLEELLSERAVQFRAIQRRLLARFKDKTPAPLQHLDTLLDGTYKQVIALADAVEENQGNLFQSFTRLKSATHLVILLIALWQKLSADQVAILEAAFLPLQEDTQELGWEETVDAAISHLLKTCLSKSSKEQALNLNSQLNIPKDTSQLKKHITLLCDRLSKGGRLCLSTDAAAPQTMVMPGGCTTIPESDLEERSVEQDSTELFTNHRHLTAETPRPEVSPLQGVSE
# Variants of: B1
# Conditions: with bbs2_human BBS2, Q9BXC9
row,Variant,effect of a mutation on the interaction
1,P328E,with no effect
2,P328A,with no effect
3,P328K,with no effect
4,S344K,with no effect
5,S344A,with no effect
6,S344E,with no effect
7,N335E,with no effect
8,N335A,with no effect
9,N335K,with no effect
10,E337K,with no effect
11,E337A,with no effect
12,I334E,with no effect
13,I334K,with no effect
14,I334A,with no effect
15,H351K,with no effect
16,H351A,with no effect
17,H351E,with no effect
18,I342A,with no effect
19,I342E,with no effect
20,I342K,with no effect
21,E350A,with no effect
22,E350K,with no effect
23,S326A,with no effect
24,S326K,with no effect

row,Variant,effect of a mutation on the interaction
1,S326E,with no effect
2,S343E,with no effect
3,S343K,with no effect
4,S343A,with no effect
5,E330K,with no effect
6,E330A,with no effect
7,L349K,with no effect
8,L349E,with no effect
9,L349A,with no effect
10,K341E,with no effect
11,K341A,with no effect
12,E331K,with no effect
13,E331A,with no effect
14,L345K,with no effect
15,L345A,with no effect
16,L345E,with no effect
17,L332K,with no effect
18,L332E,with no effect
19,L332A,with no effect
20,Q339A,with no effect
21,Q339K,with no effect
22,Q339E,with no effect
23,E348K,with no effect
24,E348A,with no effect

row,Variant,effect of a mutation on the interaction
1,N347A,with no effect
2,N347E,with no effect
3,N347K,with no effect
4,R346E,with no effect
5,R346K,with no effect
6,R346A,with no effect
7,M338A,with no effect
8,M338K,with no effect
9,M338E,with no effect
10,G329A,with no effect
11,G329E,with no effect
12,G329K,with no effect
13,G327E,with no effect
14,G327A,with no effect
15,G327K,with no effect
16,Q336A,with no effect
17,Q336E,with no effect
18,Q336K,with no effect
19,N340K,with no effect
20,N340A,with no effect
21,N340E,with no effect
22,K333E,with no effect
23,K333A,with no effect

# Variants of: B2
# Conditions: with pthb1_human BBS9, Q3SYG4
row,Variant,effect of a mutation on the interaction
1,V339E,with no effect
2,V339A,with no effect
3,V339K,with no effect
4,S341A,with no effect
5,S341K,with no effect
6,S341E,with no effect
7,W337A,with no effect
8,W337E,with no effect
9,W337K,with no effect
10,Q334K,with no effect
11,Q334A,with no effect
12,Q334E,with no effect
13,L336E,with no effect
14,L336A,with no effect
15,L336K,with no effect
16,E338A,with no effect
17,E338K,with no effect
18,G335K,with no effect
19,G335A,with no effect
20,G335E,with no effect
21,M340E,with no effect
22,M340A,with no effect
23,M340K,with no effect
